Consider 112 variants from article PMC11969024 (2025).

B1: peptide HD2 (from tick evasin EVA4) / CCL17 (biotinylated, synthetic) (parent complex)
chain 1: EEDDYTAYAPLTCYFT
chain 2: ARGTNVGRECCLEYFKGAIPLRKLKTWYQTSEDCSRDAIVFVTVQGRAICSDPNNKRVKNAVKYLQSLERS

This assay covers variants of B1.
Turning to chain 1 EEDDYTAYAPLTCYMT [chain 1 F15M], the enrichment was 0.0931 log2 (difference from the parental peptide). For the variant chain 1 EEDDYTAYAPLTCYVT [chain 1 F15V], the enrichment is 1.08 log2 (difference from the parental peptide). In the case of chain 1 EEDDYTAYAPLTCYAT [chain 1 F15A], the enrichment is 0.597 log2 (difference from the parental peptide). On to chain 1 EEDDYTAYAPLTCYTT [chain 1 F15T], for which the enrichment was 0.347 log2 (difference from the parental peptide).

For the variant chain 1 EEDDYTAYAPLTCYNT [chain 1 F15N], the enrichment was -1.55 log2 (difference from the parental peptide). chain 1 EEDDYTAYAPLTCYGT [chain 1 F15G]: the enrichment is -3.49 log2 (difference from the parental peptide).

Take chain 1 EEDDYTAYAPLTCYQT [chain 1 F15Q]: the enrichment is -0.329 log2 (difference from the parental peptide).

Turning to chain 1 EEDDYTAYAPLTCYPT [chain 1 F15P], the enrichment is 1.23 log2 (difference from the parental peptide).

For chain 1 EEDDYTAYAPLTCYLT [chain 1 F15L], the enrichment was 0.236 log2 (difference from the parental peptide). Consider chain 1 EEDDYTAYAPLTCYYT [chain 1 F15Y], for which the enrichment is 2.54 log2 (difference from the parental peptide). For chain 1 EEDDYTAYAPLTCYHT [chain 1 F15H], the enrichment is 0.105 log2 (difference from the parental peptide). Regarding chain 1 EEDDYTAYAPLTCYKT [chain 1 F15K], the enrichment was 0.71 log2 (difference from the parental peptide). For chain 1 EEDDSTAYAPLTCYFT [chain 1 Y5S] the value was -7.62 log2 (difference from the parental peptide); for chain 1 EEDDWTAYAPLTCYFT [chain 1 Y5W], 0.266 log2 (difference from the parental peptide); for chain 1 EEDDGTAYAPLTCYFT [chain 1 Y5G], -7.21 log2 (difference from the parental peptide). The result for chain 1 EEDDMTAYAPLTCYFT [chain 1 Y5M] reads -3.16 log2 (difference from the parental peptide); that for chain 1 EEDDITAYAPLTCYFT [chain 1 Y5I], -6.15 log2 (difference from the parental peptide). The result for chain 1 EEDDFTAYAPLTCYFT [chain 1 Y5F] reads -2.8 log2 (difference from the parental peptide); that for chain 1 EEDDPTAYAPLTCYFT [chain 1 Y5P], -4.51 log2 (difference from the parental peptide). Turning to chain 1 EEDDYTAYAALTCYFT [chain 1 P10A], the enrichment is -8.82 log2 (difference from the parental peptide). For chain 1 EEDDYTAYAWLTCYFT [chain 1 P10W], the enrichment is -5.95 log2 (difference from the parental peptide). For chain 1 EEDDYTAYAGLTCYFT [chain 1 P10G], the enrichment was -9.32 log2 (difference from the parental peptide).

Regarding chain 1 EEDDYTAYADLTCYFT [chain 1 P10D], the enrichment was -8.51 log2 (difference from the parental peptide). chain 1 EEDDYTAYAELTCYFT [chain 1 P10E]: the enrichment is -6.42 log2 (difference from the parental peptide). In the case of chain 1 EEDDYTAYAPETCYFT [chain 1 L11E], the enrichment is -4.46 log2 (difference from the parental peptide). Regarding chain 1 EEDDYTAYAPNTCYFT [chain 1 L11N], the enrichment was -6.23 log2 (difference from the parental peptide). For chain 1 EEDDYTAYAPATCYFT [chain 1 L11A], the enrichment is -1.12 log2 (difference from the parental peptide).

In the case of chain 1 EEDDYTAYAPKTCYFT [chain 1 L11K], the enrichment was 2.96 log2 (difference from the parental peptide). The result for chain 1 EEDDYTAYAPDTCYFT [chain 1 L11D] reads -9.19 log2 (difference from the parental peptide); that for chain 1 EEDDYTAYAPWTCYFT [chain 1 L11W], -0.813 log2 (difference from the parental peptide); that for chain 1 EEDDYTAYAPLTCLFT [chain 1 Y14L], -4.61 log2 (difference from the parental peptide).

On to chain 1 EEDDYTAYAPLTCCFT [chain 1 Y14C], for which the enrichment is -7.42 log2 (difference from the parental peptide). For chain 1 EEDDYTAYAPLTCTFT [chain 1 Y14T] the value was -3.79 log2 (difference from the parental peptide); for chain 1 EEDDYTAYAPLKCYFT [chain 1 T12K], -2.78 log2 (difference from the parental peptide). chain 1 EEDDYTAYAPLQCYFT [chain 1 T12Q]: the enrichment was -1.6 log2 (difference from the parental peptide). For chain 1 EEDDYTAYAPLSCYFT [chain 1 T12S] the value was -3.76 log2 (difference from the parental peptide); for chain 1 EEDDYTAYAPLNCYFT [chain 1 T12N], -3.22 log2 (difference from the parental peptide). Turning to chain 1 EEDDYTAYAPLHCYFT [chain 1 T12H], the enrichment was -2.06 log2 (difference from the parental peptide). On to chain 1 EEDDYTAYAPLICYFT [chain 1 T12I], for which the enrichment is 0.0487 log2 (difference from the parental peptide).

In the case of chain 1 EEDDYTAYAPLYCYFT [chain 1 T12Y], the enrichment is -0.855 log2 (difference from the parental peptide).

As to chain 1 EEDDYTAYAPLDCYFT [chain 1 T12D], the enrichment is -7.76 log2 (difference from the parental peptide). The result for chain 1 EEDDYTAYAPLPCYFT [chain 1 T12P] reads -4.02 log2 (difference from the parental peptide). As for chain 1 EEDDYTAYAPLMCYFT [chain 1 T12M], the enrichment is 1.75 log2 (difference from the parental peptide). Regarding chain 1 EEDDYTAYAPLGCYFT [chain 1 T12G], the enrichment is -10.4 log2 (difference from the parental peptide). The result for chain 1 EEDDYTAYAPLTCYFC [chain 1 T16C] reads -5.46 log2 (difference from the parental peptide).

chain 1 EEDDYTAYAPLTCYFV [chain 1 T16V]: the enrichment was -0.108 log2 (difference from the parental peptide). Regarding chain 1 EEDDYTAYAPLTCYFR [chain 1 T16R], the enrichment was -1.43 log2 (difference from the parental peptide). As to chain 1 EEDDYTAYAPLTCYFS [chain 1 T16S], the enrichment was 0.663 log2 (difference from the parental peptide). For chain 1 EEDDYTAYAPLTCYFM [chain 1 T16M] the value was 0.118 log2 (difference from the parental peptide); for chain 1 EEDDYTAYAPLTCYFG [chain 1 T16G], 0.943 log2 (difference from the parental peptide). The result for chain 1 EEDDYTAYAPLTCYFA [chain 1 T16A] reads 1.13 log2 (difference from the parental peptide); that for chain 1 EEDDYTAYAPLTCYFP [chain 1 T16P], 1.33 log2 (difference from the parental peptide). The result for chain 1 EEDDYRAYAPLTCYFT [chain 1 T6R] reads 0.942 log2 (difference from the parental peptide); that for chain 1 EEDDYVAYAPLTCYFT [chain 1 T6V], -4.25 log2 (difference from the parental peptide); that for chain 1 EEDDYYAYAPLTCYFT [chain 1 T6Y], 0.0769 log2 (difference from the parental peptide).

On to chain 1 EEDDYHAYAPLTCYFT [chain 1 T6H], for which the enrichment is 0.317 log2 (difference from the parental peptide). For chain 1 EEDDYAAYAPLTCYFT [chain 1 T6A] the value was 1.8 log2 (difference from the parental peptide); for chain 1 EEDDYLAYAPLTCYFT [chain 1 T6L], -1.57 log2 (difference from the parental peptide). The result for chain 1 EEDDYTALAPLTCYFT [chain 1 Y8L] reads -8.14 log2 (difference from the parental peptide); that for chain 1 EEDDYTAWAPLTCYFT [chain 1 Y8W], -3.5 log2 (difference from the parental peptide); that for chain 1 EEDDYTACAPLTCYFT [chain 1 Y8C], -9.78 log2 (difference from the parental peptide).

For chain 1 EEDDYTAFAPLTCYFT [chain 1 Y8F], the enrichment was 0.399 log2 (difference from the parental peptide). As to chain 1 EEDDYTAHAPLTCYFT [chain 1 Y8H], the enrichment is -5.35 log2 (difference from the parental peptide).

For the variant chain 1 EEDDYTAVAPLTCYFT [chain 1 Y8V], the enrichment is -8.87 log2 (difference from the parental peptide). The result for chain 1 EEDDYTMYAPLTCYFT [chain 1 A7M] reads 1.3 log2 (difference from the parental peptide); that for chain 1 EEDDYTNYAPLTCYFT [chain 1 A7N], 2.1 log2 (difference from the parental peptide). For chain 1 EEDDYTEYAPLTCYFT [chain 1 A7E] the value was -0.527 log2 (difference from the parental peptide); for chain 1 EEDDYTFYAPLTCYFT [chain 1 A7F], -3.04 log2 (difference from the parental peptide); for chain 1 EEDDYTSYAPLTCYFT [chain 1 A7S], 0.977 log2 (difference from the parental peptide). For chain 1 EEDDYTGYAPLTCYFT [chain 1 A7G] the value was 2.15 log2 (difference from the parental peptide). Take chain 1 EEDDYTDYAPLTCYFT [chain 1 A7D]: the enrichment was 0.474 log2 (difference from the parental peptide). As to chain 1 EMDDYTAYAPLTCYFT [chain 1 E2M], the enrichment was -1.82 log2 (difference from the parental peptide). As to chain 1 ENDDYTAYAPLTCYFT [chain 1 E2N], the enrichment was -1.61 log2 (difference from the parental peptide). As for chain 1 EDDDYTAYAPLTCYFT [chain 1 E2D], the enrichment is 1.45 log2 (difference from the parental peptide). The result for chain 1 EWDDYTAYAPLTCYFT [chain 1 E2W] reads -2.45 log2 (difference from the parental peptide); that for chain 1 ESDDYTAYAPLTCYFT [chain 1 E2S], -1.29 log2 (difference from the parental peptide); that for chain 1 EHDDYTAYAPLTCYFT [chain 1 E2H], -1.27 log2 (difference from the parental peptide). On to chain 1 ETDDYTAYAPLTCYFT [chain 1 E2T], for which the enrichment is -2.14 log2 (difference from the parental peptide). In the case of chain 1 EEDDYTAYVPLTCYFT [chain 1 A9V], the enrichment is -9.17 log2 (difference from the parental peptide). chain 1 EEDDYTAYGPLTCYFT [chain 1 A9G]: the enrichment was -7.21 log2 (difference from the parental peptide).

Take chain 1 EEDDYTAYEPLTCYFT [chain 1 A9E]: the enrichment was -1.38 log2 (difference from the parental peptide). Consider chain 1 EEDDYTAYWPLTCYFT [chain 1 A9W], for which the enrichment was -4.5 log2 (difference from the parental peptide). On to chain 1 EEDDYTAYYPLTCYFT [chain 1 A9Y], for which the enrichment was -8.18 log2 (difference from the parental peptide). In the case of chain 1 EEDVYTAYAPLTCYFT [chain 1 D4V], the enrichment is -7.15 log2 (difference from the parental peptide). In the case of chain 1 EEDIYTAYAPLTCYFT [chain 1 D4I], the enrichment is -4.19 log2 (difference from the parental peptide). As for chain 1 EEDSYTAYAPLTCYFT [chain 1 D4S], the enrichment is -4.05 log2 (difference from the parental peptide). Consider chain 1 EEDPYTAYAPLTCYFT [chain 1 D4P], for which the enrichment is -2.13 log2 (difference from the parental peptide).

As to chain 1 EEDMYTAYAPLTCYFT [chain 1 D4M], the enrichment was -3.6 log2 (difference from the parental peptide). In the case of chain 1 EEDKYTAYAPLTCYFT [chain 1 D4K], the enrichment is -4.98 log2 (difference from the parental peptide). For chain 1 EEDNYTAYAPLTCYFT [chain 1 D4N] the value was -3.02 log2 (difference from the parental peptide); for chain 1 EEDRYTAYAPLTCYFT [chain 1 D4R], -4.61 log2 (difference from the parental peptide).

Take chain 1 EEDFYTAYAPLTCYFT [chain 1 D4F]: the enrichment is -6.96 log2 (difference from the parental peptide). Regarding chain 1 EEDDYTAYAPLTNYFT [chain 1 C13N], the enrichment is -8.31 log2 (difference from the parental peptide). Turning to chain 1 EEDDYTAYAPLTQYFT [chain 1 C13Q], the enrichment is -6.89 log2 (difference from the parental peptide). On to chain 1 EEDDYTAYAPLTTYFT [chain 1 C13T], for which the enrichment is -5.42 log2 (difference from the parental peptide). For chain 1 EEDDYTAYAPLTVYFT [chain 1 C13V] the value was -2.69 log2 (difference from the parental peptide); for chain 1 EEDDYTAYAPLTSYFT [chain 1 C13S], -8.83 log2 (difference from the parental peptide); for chain 1 EEDDYTAYAPLTFYFT [chain 1 C13F], -5.92 log2 (difference from the parental peptide).

Consider chain 1 EEDDYTAYAPLTMYFT [chain 1 C13M], for which the enrichment was -2.5 log2 (difference from the parental peptide). Turning to chain 1 EEHDYTAYAPLTCYFT [chain 1 D3H], the enrichment was -2.9 log2 (difference from the parental peptide).

For the variant chain 1 EEFDYTAYAPLTCYFT [chain 1 D3F], the enrichment was -5.06 log2 (difference from the parental peptide). In the case of chain 1 EELDYTAYAPLTCYFT [chain 1 D3L], the enrichment is -4.35 log2 (difference from the parental peptide). Regarding chain 1 EETDYTAYAPLTCYFT [chain 1 D3T], the enrichment is -2.29 log2 (difference from the parental peptide). chain 1 EEYDYTAYAPLTCYFT [chain 1 D3Y]: the enrichment is -3.2 log2 (difference from the parental peptide).

In the case of chain 1 EEADYTAYAPLTCYFT [chain 1 D3A], the enrichment was -2.38 log2 (difference from the parental peptide). For chain 1 EEEDYTAYAPLTCYFT [chain 1 D3E], the enrichment is 0.618 log2 (difference from the parental peptide). For chain 1 VEDDYTAYAPLTCYFT [chain 1 E1V], the enrichment is -0.847 log2 (difference from the parental peptide). For chain 1 AEDDYTAYAPLTCYFT [chain 1 E1A], the enrichment is 0.0959 log2 (difference from the parental peptide). As to chain 1 LEDDYTAYAPLTCYFT [chain 1 E1L], the enrichment is -0.975 log2 (difference from the parental peptide).

For the variant chain 1 NEDDYTAYAPLTCYFT [chain 1 E1N], the enrichment is 0.681 log2 (difference from the parental peptide). For chain 1 IEDDYTAYAPLTCYFT [chain 1 E1I], the enrichment was -0.523 log2 (difference from the parental peptide). As for chain 1 MEDDYTAYAPLTCYFT [chain 1 E1M], the enrichment was 0.0225 log2 (difference from the parental peptide).
